Results from doi:10.1101/2020.06.30.179986 (bioRxiv, 2020).

T1: Hfp N-terminal RRMs (half pint, PUF60 homolog) (UniProt Q8T6B9 110-326)
T1 sequence: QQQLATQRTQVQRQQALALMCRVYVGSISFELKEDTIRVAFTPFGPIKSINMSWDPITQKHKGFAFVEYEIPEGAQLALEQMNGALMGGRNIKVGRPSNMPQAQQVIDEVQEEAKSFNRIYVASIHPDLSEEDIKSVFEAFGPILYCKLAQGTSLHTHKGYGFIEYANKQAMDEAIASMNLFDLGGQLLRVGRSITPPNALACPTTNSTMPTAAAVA

B1: recombinant protein composed of the two N-terminal RNA Recognition Motifs (RRM) of Half pint (Hfp) (domain or fragment, Drosophila, UniProt Q8T6B9 110-326, looked up)
chain: T1 sequence

Columns and labels:
[1] = target: T1, Hfp N-terminal RRMs (half pint, PUF60 …); assay: EMSA
[2] = target: the molecule itself; assay: SDS-PAGE and Western blot

| Binder | binding result [1] | stoichiometry N [2] |
| --- | --- | --- |
| UUUUUCUCUU (ssRNA) [Positive control (Drosophila consensus polypyrimidine-rich sequence)] | binds |  |
| UACGUACGUA (ssRNA) [Negative control scramble] | no binding |  |
| B1 |  | 2 |
| UCUUCCCCUC (ssRNA) [act57B PT] | binds |  |
